Biological target: Siglec-10Fc (human) (UniProt Q96LC7)
Experiment: Biacore (SPR): control Fc compared with CD24Fc for binding of Siglec-10Fc; only the fitted value is printed under the KD line, no curve is drawn for the control

Chain of UniProt Q96LC7 (Q96LC7 17-546): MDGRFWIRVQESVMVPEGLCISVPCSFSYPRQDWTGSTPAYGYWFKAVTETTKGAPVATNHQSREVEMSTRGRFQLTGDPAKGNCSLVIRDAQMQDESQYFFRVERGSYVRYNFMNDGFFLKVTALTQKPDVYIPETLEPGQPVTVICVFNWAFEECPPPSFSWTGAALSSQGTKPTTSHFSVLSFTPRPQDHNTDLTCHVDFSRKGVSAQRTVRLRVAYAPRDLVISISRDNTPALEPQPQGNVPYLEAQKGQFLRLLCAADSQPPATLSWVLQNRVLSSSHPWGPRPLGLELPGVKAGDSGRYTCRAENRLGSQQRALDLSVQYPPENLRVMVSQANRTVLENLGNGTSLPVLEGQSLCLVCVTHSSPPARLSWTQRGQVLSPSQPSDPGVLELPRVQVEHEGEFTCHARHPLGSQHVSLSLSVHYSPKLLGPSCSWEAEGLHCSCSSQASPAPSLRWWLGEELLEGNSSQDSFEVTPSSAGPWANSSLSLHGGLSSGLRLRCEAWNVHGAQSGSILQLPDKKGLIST

Kd: 16.2 µM
Substance: control Fc
